Measured values published in article PMC6068138, “Identification of a 57S translation complex containing closed-loop factors and the 60S ribosome subunit” (Scientific Reports, 2018).

B1: eIF4G1, GFP tagged (natural protein, Saccharomyces cerevisiae, UniProt P39935 1-952, looked up)
chain: MTDETAHPTQSASKQESAALKQTGDDQQESQQQRGYTNYNNGSNYTQKKPYNSNRPHQQRGGKFGPNRYNNRGNYNGGGSFRGGHMGANSSNVPWTGYYNNYPVYYQPQQMAAAGSAPANPIPVEEKSPVPTKIEITTKSGEHLDLKEQHKAKLQSQERSTVSPQPESKLKETSDSTSTSTPTPTPSTNDSKASSEENISEAEKTRRNFIEQVKLRKAALEKKRKEQLEGSSGNNNIPMKTTPENVEEKGSDKPEVTEKTKPAEEKSAEPEVKQETPAEEGEQGEKGQIKEESTPKVLTFAERLKLKKQQKEREEKTEGKENKEVPVQEETKSAIESAPVPPSEQVKEETEVAETEQSNIDESATTPAIPTKSDEAEAEVEAEAGDAGTKIGLEAEIETTTDETDDGTNTVSHILNVLKDATPIEDVFSFNYPEGIEGPDIKYKKEHVKYTYGPTFLLQFKDKLNVKADAEWVQSTASKIVIPPGMGRGNRSRDSGRFGNNSSRGHDFRNTSVRNMDDRANSRTSSKRRSKRMNDDRRSNRSYTSRRDRERGSYRNEEKREDDKPKEEVAPLVPSANRWVPKFKSKKTEKKLAPDGKTELLDKDEVERKMKSLLNKLTLEMFDAISSEILAIANISVWETNGETLKAVIEQIFLKACDEPHWSSMYAQLCGKVVKELNPDITDETNEGKTGPKLVLHYLVARCHAEFDKGWTDKLPTNEDGTPLEPEMMSEEYYAAASAKRRGLGLVRFIGFLYRLNLLTGKMMFECFRRLMKDLTDSPSEETLESVVELLNTVGEQFETDSFRTGQATLEGSQLLDSLFGILDNIIQTAKISSRIKFKLIDIKELRHDKNWNSDKKDNGPKTIQQIHEEEERQRQLKNNSRSNSRRTNNSSNRHSFRRDAPPASKDSFITTRTYSQRNSQRAPPPKEEPAAPTSTATNMFSALMGESDDEE
notes: eIF4G1, Saccharomyces cerevisiae; source: S. cerevisiae strain carrying the GFP fusion, in cell extract
B2: PAB1, GFP tagged (natural protein, Saccharomyces cerevisiae, UniProt P04147 1-577, looked up)
chain: MADITDKTAEQLENLNIQDDQKQAATGSESQSVENSSASLYVGDLEPSVSEAHLYDIFSPIGSVSSIRVCRDAITKTSLGYAYVNFNDHEAGRKAIEQLNYTPIKGRLCRIMWSQRDPSLRKKGSGNIFIKNLHPDIDNKALYDTFSVFGDILSSKIATDENGKSKGFGFVHFEEEGAAKEAIDALNGMLLNGQEIYVAPHLSRKERDSQLEETKAHYTNLYVKNINSETTDEQFQELFAKFGPIVSASLEKDADGKLKGFGFVNYEKHEDAVKAVEALNDSELNGEKLYVGRAQKKNERMHVLKKQYEAYRLEKMAKYQGVNLFVKNLDDSVDDEKLEEEFAPYGTITSAKVMRTENGKSKGFGFVCFSTPEEATKAITEKNQQIVAGKPLYVAIAQRKDVRRSQLAQQIQARNQMRYQQATAAAAAAAAGMPGQFMPPMFYGVMPPRGVPFNGPNPQQMNPMGGMPKNGMPPQFRNGPVYGVPPQGGFPRNANDNNQFYQQKQRQALGEQLYKKVSAKTSNEEAAGKITGMILDLPPQEVFPLLESDELFEQHYKEASAAYESFKKEQEQQTEQA
notes: source: S. cerevisiae strain carrying the GFP fusion, in cell extract
B3: eIF4G2-GFP (natural protein, Saccharomyces cerevisiae, UniProt P39936 1-914, looked up)
chain: MTDQRGPPPPHPQQANGYKKFPPHDNQYSGANNSQPNNHYNENLYSAREPHNNKQYQSKNGKYGTNKYNNRNNSQGNAQYYNNRFNNGYRLNNNDYNPAMLPGMQWPANYYAPQMYYIPQQMVPVASPPYTHQPLNTNPEPPSTPKTTKIEITTKTGERLNLKKFHEEKKASKGEEKNDGVEQKSKSGTPFEKEATPVLPANEAVKDTLTETSNEKSTSEAENTKRLFLEQVRLRKAAMERKKNGLISETEKKQETSNHDNTDTTKPNSVIESEPIKEAPKPTGEANEVVIDGKSGASVKTPQHVTGSVTKSVTFNEPENESSSQDVDELVKDDDTTEISDTTGGKTVNKSDDETINSVITTEENTVKETEPSTSDIEMPTVSQLLETLGKAQPISDIYEFAYPENVERPDIKYKKPSVKYTYGPTFLLQFKDKLKFRPDPAWVEAVSSKIVIPPHIARNKPKDSGRFGGDFRSPSMRGMDHTSSSRVSSKRRSKRMGDDRRSNRGYTSRKDREKAAEKAEEQAPKEEIAPLVPSANRWIPKSRVKKTEKKLAPDGKTELFDKEEVERKMKSLLNKLTLEMFDSISSEILDIANQSKWEDDGETLKIVIEQIFHKACDEPHWSSMYAQLCGKVVKDLDPNIKDKENEGKNGPKLVLHYLVARCHEEFEKGWADKLPAGEDGNPLEPEMMSDEYYIAAAAKRRGLGLVRFIGYLYCLNLLTGKMMFECFRRLMKDLNNDPSEETLESVIELLNTVGEQFEHDKFVTPQATLEGSVLLDNLFMLLQHIIDGGTISNRIKFKLIDVKELREIKHWNSAKKDAGPKTIQQIHQEEEQLRQKKNSQRSNSRFNNHNQSNSNRYSSNRRNMQNTQRDSFASTKTGSFRNNQRNARKVEEVSQAPRANMFDALMNNDGDSD
notes: eIF4G2, Saccharomyces cerevisiae; also called TIF4632-GFP; source: S. cerevisiae strain RP2384 (TIF4632-GFP::G418), in cell extract
B4: translation termination factor eRF1 (natural protein, Saccharomyces cerevisiae, UniProt P12385 1-437, looked up)
chain: MDNEVEKNIEIWKVKKLVQSLEKARGNGTSMISLVIPPKGQIPLYQKMLTDEYGTASNIKSRVNRLSVLSAITSTQQKLKLYNTLPKNGLVLYCGDIITEDGKEKKVTFDIEPYKPINTSLYLCDNKFHTEVLSELLQADDKFGFIVMDGQGTLFGSVSGNTRTVLHKFTVDLPKKHGRGGQSALRFARLREEKRHNYVRKVAEVAVQNFITNDKVNVKGLILAGSADFKTDLAKSELFDPRLACKVISIVDVSYGGENGFNQAIELSAEALANVKYVQEKKLLEAYFDEISQDTGKFCYGIDDTLKALDLGAVEKLIVFENLETIRYTFKDAEDNEVIKFAEPEAKDKSFAIDKATGQEMDVVSEEPLIEWLAANYKNFGATLEFITDKSSEGAQFVTGFGGIGAMLRYKVNFEQLVDESEDEYYDEDEGSDYDFI
notes: translation termination factor eRF1, Saccharomyces cerevisiae; source: S. cerevisiae, in cell extract
B5: eIF4E, GFP tagged (natural protein, Saccharomyces cerevisiae, UniProt P07260 1-213, looked up)
chain: MSVEEVSKKFEENVSVDDTTATPKTVLSDSAHFDVKHPLNTKWTLWYTKPAVDKSESWSDLLRPVTSFQTVEEFWAIIQNIPEPHELPLKSDYHVFRNDVRPEWEDEANAKGGKWSFQLRGKGADIDELWLRTLLAVIGETIDEDDSQINGVVLSIRKGGNKFALWTKSEDKEPLLRIGGKFKQVLKLTDDGHLEFFPHSSANGRHPQPSITL
notes: as for B2
B6: RPL6B-GFP (natural protein, Saccharomyces cerevisiae, UniProt P05739 1-176, looked up)
chain: MTAQQAPKWYPSEDVAAPKKTRKAVRPQKLRASLVPGTVLILLAGRFRGKRVVYLKHLEDNTLLVTGPFKVNGVPLRRVNARYVIATSTKVSVEGVNVEKFNVEYFAKEKLTKKEKKEANLFPEQQTKEIKTERVEDQKVVDKALLAEIKKTPLLKQYLSASFSLKNGDKPHLLKF
notes: large ribosomal subunit protein RPL6B, Saccharomyces cerevisiae; part of the 60S ribosomal subunit in the extract; source: S. cerevisiae strain carrying the GFP fusion, in cell extract

Experiments:
Settings in all cases: partners not purified
[1] = target: T1, eIF4E-Flag (mRNA cap binding protein) (Saccharomyces cerevisiae, UniProt P07260 1-213); test: co-IP + AUC; stoichiometric analysis: eIF4E-Flag purified material split and run at the same time by AU-FDS (GFP protein) and AU-A230 (total material); standards STM1-GFP and RPS4B-GFP; values relative to 100 mRNA bound by ribosomes; cells on glucose
T1 construct: bait of the one-step Flag pull down; also called eIF4-Flag; source: S. cerevisiae, expressed from plasmid YC801 (eIF4E-Flag URA3), in cell extract
T1 sequence (looked up): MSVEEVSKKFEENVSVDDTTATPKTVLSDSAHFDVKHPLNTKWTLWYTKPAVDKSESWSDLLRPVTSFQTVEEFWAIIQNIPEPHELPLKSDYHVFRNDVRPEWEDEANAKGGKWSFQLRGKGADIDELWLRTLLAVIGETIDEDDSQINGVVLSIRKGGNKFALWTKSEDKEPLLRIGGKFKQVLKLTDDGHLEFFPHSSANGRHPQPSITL

[2] = target: T2, Flag-PAB1 (poly(A)-binding protein) (Saccharomyces cerevisiae, UniProt P04147 1-577); test: co-IP + AUC; stoichiometric analysis: Flag-PAB1 purified material split and run at the same time by AU-FDS (GFP protein) and AU-A230 (total material); standards STM1-GFP and RPS4B-GFP; values relative to 100 mRNA bound by ribosomes; cells on glucose, 30 °C to 46 °C 1 min, or glucose depleted 10 min and added back 1 min
T2 construct: bait of the one-step Flag pull down; also called PAB1-Flag; source: S. cerevisiae, expressed from plasmid YC776 (Flag-PAB1 URA3), in cell extract
T2 sequence (looked up): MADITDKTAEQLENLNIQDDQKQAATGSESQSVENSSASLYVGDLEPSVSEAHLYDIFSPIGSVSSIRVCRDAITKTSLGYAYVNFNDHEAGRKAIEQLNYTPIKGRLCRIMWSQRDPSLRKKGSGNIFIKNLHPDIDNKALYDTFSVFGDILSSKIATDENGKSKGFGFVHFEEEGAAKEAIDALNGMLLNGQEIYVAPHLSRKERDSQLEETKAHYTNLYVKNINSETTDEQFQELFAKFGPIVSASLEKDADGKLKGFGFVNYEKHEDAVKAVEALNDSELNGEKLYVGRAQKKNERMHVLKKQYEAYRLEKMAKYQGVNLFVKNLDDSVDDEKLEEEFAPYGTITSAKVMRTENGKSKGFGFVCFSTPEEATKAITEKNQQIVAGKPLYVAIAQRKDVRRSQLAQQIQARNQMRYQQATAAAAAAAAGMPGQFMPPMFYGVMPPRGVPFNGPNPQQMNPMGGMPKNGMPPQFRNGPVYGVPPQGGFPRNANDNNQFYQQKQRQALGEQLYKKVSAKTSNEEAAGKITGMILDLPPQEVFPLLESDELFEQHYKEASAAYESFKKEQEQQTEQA

[3] = target: T2, Flag-PAB1 (poly(A)-binding protein); test: as above; remark: listed apart in the source
[4] = target: T2, Flag-PAB1 (poly(A)-binding protein); test: co-IP + AUC; one-step Flag pull down of Flag-PAB1 from yeast cell extracts (cycloheximide added before lysis); Flag eluate analysed by AU-FDS for the GFP tagged protein, 20 °C, 15,000 rpm; cells on glucose, glucose depleted 10 min, glucose added back 1 min, or 30 °C to 46 °C 1 min
[5] = target: T1, eIF4E-Flag (mRNA cap binding protein); test: co-IP + AUC; one-step Flag pull down of eIF4E-Flag from yeast cell extracts (cycloheximide added before lysis); Flag eluate analysed by AU-FDS for the GFP tagged protein, 20 °C, 15,000 rpm; cells on glucose or glucose depleted 10 min

Binder	abundance in the eIF4E-Flag 39S complex (Glc+) [1]	abundance in the eIF4E-Flag 57S complex (Glc+) [1]	abundance in the Flag-PAB1 39S complex (30 °C to 46 °C 1 min) [2]	abundance in the Flag-PAB1 39S complex (Glu + − 10 min + 1 min) [2]	abundance in the Flag-PAB1 57S complex (30 °C to 46 °C 1 min) [2]	abundance in the Flag-PAB1 57S complex (Glu + − 10 min +1 min) [2]	abundance in the Flag-PAB1 39S complex (Glc+) [3]	abundance in the Flag-PAB1 57S complex (Glc+) [3]	fold change of abundance in the 77S complex, glucose depleted 10 min against glucose [4]	fold change of association with the 77S complex, 46 °C 1 min against 30 °C [4]	fold change of abundance in the 57S complex, glucose depleted against glucose [5]
B1	88 ± 12 relative to 100 mRNA	71 ± 8.6 relative to 100 mRNA	7.9 ± 1.7 relative to 100 mRNA	8.8 ± 1.6 relative to 100 mRNA	3 ± 2.2 relative to 100 mRNA	5.3 ± 1.1 relative to 100 mRNA	13 ± 2.3 relative to 100 mRNA	6.4 ± 0.91 relative to 100 mRNA			
B2	42 ± 9.1 relative to 100 mRNA	26 ± 3.7 relative to 100 mRNA									
B3	29 ± 5.4 relative to 100 mRNA	32 ± 11 relative to 100 mRNA	12 ± 8.1 relative to 100 mRNA	5.3 ± 2.7 relative to 100 mRNA	3.8 ± 2.3 relative to 100 mRNA	3.2 ± 0.45 relative to 100 mRNA	8.3 ± 3.4 relative to 100 mRNA	3.5 ± 1.4 relative to 100 mRNA			
B4									4 fold	2 fold	
B5			20 ± 2.5 relative to 100 mRNA	14 ± 3.8 relative to 100 mRNA	21 ± 9.4 relative to 100 mRNA	5.1 ± 2.1 relative to 100 mRNA	28 ± 9.5 relative to 100 mRNA	14 ± 2.9 relative to 100 mRNA			
B6											1.8 fold
